From US20250304666A1 (ALCHEMAB THERAPEUTICS, published 2025) come the findings set out here.

For one assay, the target named is T1, reduced CFHR2 (UniProt P36980 19-270, limits assumed).
T1 sequence (looked up): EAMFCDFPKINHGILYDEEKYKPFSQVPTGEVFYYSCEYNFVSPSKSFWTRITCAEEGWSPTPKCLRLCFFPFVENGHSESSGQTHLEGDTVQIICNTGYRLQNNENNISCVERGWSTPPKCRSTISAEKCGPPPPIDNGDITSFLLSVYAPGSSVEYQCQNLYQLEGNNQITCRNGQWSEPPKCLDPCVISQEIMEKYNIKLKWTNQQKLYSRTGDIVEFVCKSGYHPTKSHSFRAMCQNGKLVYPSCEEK
Kind of assay: ELISA, reduced antigen. For orientation: ELISA stands for enzyme-linked immunosorbent assay.

Another assay deals with T2, reduced CFHR1 (UniProt Q03591 19-330, limits assumed).
T2 sequence (looked up): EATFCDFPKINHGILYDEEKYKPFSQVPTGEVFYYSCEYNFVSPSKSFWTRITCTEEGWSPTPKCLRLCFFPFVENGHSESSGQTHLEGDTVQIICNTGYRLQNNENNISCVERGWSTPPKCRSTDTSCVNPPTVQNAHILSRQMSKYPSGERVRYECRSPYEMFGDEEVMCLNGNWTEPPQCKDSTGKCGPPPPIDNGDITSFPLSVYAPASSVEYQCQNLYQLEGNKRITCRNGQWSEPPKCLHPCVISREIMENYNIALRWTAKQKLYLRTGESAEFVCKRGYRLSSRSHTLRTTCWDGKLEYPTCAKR
Nature of the assay: ELISA, reduced antigen.

A further assay addresses T3, non-reduced CFH.
T3 construct: also called CFH (NON-REDUCED)
T3 chain: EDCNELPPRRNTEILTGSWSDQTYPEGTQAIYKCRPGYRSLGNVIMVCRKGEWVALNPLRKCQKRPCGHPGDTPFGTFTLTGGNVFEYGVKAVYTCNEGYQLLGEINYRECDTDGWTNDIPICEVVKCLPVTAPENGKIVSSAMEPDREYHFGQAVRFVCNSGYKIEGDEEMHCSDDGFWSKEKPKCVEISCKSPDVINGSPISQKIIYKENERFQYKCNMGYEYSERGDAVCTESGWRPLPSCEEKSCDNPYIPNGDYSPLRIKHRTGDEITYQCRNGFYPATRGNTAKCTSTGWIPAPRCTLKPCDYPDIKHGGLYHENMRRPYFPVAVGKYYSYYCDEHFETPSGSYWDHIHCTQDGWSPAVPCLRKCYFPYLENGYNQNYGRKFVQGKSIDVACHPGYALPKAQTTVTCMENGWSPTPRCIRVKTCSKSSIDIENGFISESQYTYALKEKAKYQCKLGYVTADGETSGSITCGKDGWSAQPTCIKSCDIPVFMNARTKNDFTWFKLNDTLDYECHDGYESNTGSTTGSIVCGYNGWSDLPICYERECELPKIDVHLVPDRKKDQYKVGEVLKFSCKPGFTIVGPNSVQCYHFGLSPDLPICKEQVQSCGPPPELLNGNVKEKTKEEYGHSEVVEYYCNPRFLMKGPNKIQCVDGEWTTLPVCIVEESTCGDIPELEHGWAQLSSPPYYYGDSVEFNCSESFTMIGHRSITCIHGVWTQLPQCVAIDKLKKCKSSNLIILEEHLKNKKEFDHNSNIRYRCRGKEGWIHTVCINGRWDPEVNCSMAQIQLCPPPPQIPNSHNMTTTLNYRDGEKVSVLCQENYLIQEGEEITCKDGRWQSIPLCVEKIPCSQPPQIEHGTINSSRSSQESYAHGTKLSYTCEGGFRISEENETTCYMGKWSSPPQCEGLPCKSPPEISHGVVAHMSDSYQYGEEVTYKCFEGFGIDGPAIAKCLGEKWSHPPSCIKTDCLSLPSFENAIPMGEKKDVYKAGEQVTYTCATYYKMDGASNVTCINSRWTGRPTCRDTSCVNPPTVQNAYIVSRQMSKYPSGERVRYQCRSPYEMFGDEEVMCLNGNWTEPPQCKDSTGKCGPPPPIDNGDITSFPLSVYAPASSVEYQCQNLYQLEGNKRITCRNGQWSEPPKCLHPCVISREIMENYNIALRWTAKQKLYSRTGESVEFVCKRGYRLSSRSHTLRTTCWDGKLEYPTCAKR
Kind of assay: ELISA, non-reduced antigen.

In another assay the target is T4, non-reduced CFHR4.
T4 construct: not reduced; also called CFHR4 (NON-REDUCED)
Kind of assay: ELISA, non-reduced antigen.

The target in another assay is T5, non-reduced CFHR2.
T5 construct: also called CFHR2 (NON-REDUCED)
T5 chain: T1 sequence (looked up)
Kind of assay: ELISA, non-reduced antigen.

The next assay has as its target T6, non-reduced CFHR1.
T6 construct: also called CFHR1 (NON-REDUCED)
T6 chain: T2 sequence (looked up)
Nature of the assay: ELISA, non-reduced antigen.

The next assay has as its target T7, non-reduced CFHR5.
T7 construct: also called CFHR5 (NON-REDUCED)
T7 chain: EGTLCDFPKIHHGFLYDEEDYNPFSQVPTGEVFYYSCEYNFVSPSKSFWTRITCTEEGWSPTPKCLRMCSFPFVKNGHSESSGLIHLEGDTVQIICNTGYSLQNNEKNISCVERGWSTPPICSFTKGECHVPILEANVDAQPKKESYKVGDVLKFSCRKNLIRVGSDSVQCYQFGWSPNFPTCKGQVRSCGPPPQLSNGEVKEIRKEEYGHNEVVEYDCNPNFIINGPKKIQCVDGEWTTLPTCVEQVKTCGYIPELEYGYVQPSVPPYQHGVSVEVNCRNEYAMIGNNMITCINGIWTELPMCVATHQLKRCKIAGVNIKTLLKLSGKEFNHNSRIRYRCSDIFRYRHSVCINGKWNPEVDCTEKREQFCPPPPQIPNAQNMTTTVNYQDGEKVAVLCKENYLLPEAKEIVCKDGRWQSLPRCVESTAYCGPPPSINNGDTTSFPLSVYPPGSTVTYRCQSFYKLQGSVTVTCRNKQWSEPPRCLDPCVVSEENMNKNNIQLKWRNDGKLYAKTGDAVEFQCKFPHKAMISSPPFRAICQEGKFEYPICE
Kind of assay: ELISA, non-reduced antigen.

In another assay the target is T8, non-reduced CFHR3.
T8 construct: also called CFHR3 (NON-REDUCED)
T8 chain: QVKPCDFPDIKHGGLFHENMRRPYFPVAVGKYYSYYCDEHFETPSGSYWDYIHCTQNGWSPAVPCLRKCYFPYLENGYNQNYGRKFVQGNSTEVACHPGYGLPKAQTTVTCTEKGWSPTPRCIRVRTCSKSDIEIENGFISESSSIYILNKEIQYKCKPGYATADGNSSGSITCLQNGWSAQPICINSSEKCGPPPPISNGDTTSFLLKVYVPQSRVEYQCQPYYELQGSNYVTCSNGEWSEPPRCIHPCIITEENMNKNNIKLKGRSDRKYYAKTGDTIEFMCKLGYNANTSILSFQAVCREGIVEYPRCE
Kind of assay: ELISA, non-reduced antigen.

Substitutions are numbered along the chain they refer to.

B1: ATL4717 (antibody, human IgG1, kappa, V domains shown)
VH: QVQLVESGGGMVQPGRSLRLSCAASGFTFSIYGMHWVRQAPGRGLEWVAVMSFDGKTKYYADSVKGRFTISRDNSKNTLYLQMNSLRRVDTAVYYCAKGGATAAVFDSWGQGTLVTVSS
VL: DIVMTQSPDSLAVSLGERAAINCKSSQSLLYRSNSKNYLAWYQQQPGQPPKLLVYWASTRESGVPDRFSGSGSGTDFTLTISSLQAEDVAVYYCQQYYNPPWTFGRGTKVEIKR
notes: Human IgG1; also called ATL0004717; ATL04717
For the molecule B1, the “fold change vs isotype at 1 ug/ml” value with reduced CFHR2 was 10.7 fold; with reduced CFHR1, 23.8 fold; with non-reduced CFH it was 7.3 fold; with non-reduced CFHR4, 0.9 fold; with non-reduced CFHR2 it was 4.3 fold; with non-reduced CFHR1 it was 10.7 fold. Also, the “fold change vs isotype at 1 ug/ml” value in the assay with non-reduced CFHR5 and with non-reduced CFHR3 was 0.9 fold throughout. In addition, the binding result with non-reduced CFHR5 and in the assay with non-reduced CFHR3 was “no binding (tested: 1 ug/ml)” in each case.

B2: ATL5170 (antibody, human IgG1, kappa, V domains shown)
VH: B1 VH with M11V, I31N, R43K, M51T, R88A, V89E, F106L
VL: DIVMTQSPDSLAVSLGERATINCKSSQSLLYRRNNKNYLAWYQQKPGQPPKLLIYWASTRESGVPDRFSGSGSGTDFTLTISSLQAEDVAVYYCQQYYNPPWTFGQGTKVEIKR
notes: IgG1; also called ATL_0005170
As for B2, the “fold change vs isotype at 1 ug/ml” value in the assay with reduced CFHR2 came out at 8.4 fold; with reduced CFHR1, 23.1 fold; with non-reduced CFH, 10 fold; in the assay with non-reduced CFHR4, 0.9 fold; in the assay with non-reduced CFHR2 it was 1.3 fold; with non-reduced CFHR1 it was 8.4 fold. The “fold change vs isotype at 1 ug/ml” value with non-reduced CFHR5 and with non-reduced CFHR3 was 1 fold in each case. For the same molecule, the binding result in the assay with non-reduced CFHR5 and in the assay with non-reduced CFHR3 was “no binding (tested: 1 ug/ml)” each time.
